Where a chain is given by its changes, count along the chain named. Where two headings read alike, the source gives them in different places.
B1: ASICalgin-2 (π-Dp2) (peptide)
peptide: LKCFQHGKVVTCHRDMKFCYHNTGMPFRNLKLILQGCSSSCSETENNKCCSTDRCNK
B2: ASICalgin-1 (π-Dp1) (peptide)
peptide: B1 peptide with F4Y

Legend:
[1] = target: rat homomeric ASIC1b channel (rat) (UniProt P55926)
[2] = target: rat homomeric ASIC1b channel (rat) (UniProt P55926); remark: listed apart in the source
[3] = target: rat homomeric ASIC1a channel (rat, UniProt P55926); assay: cell-based or functional assay
[4] = target: human homomeric ASIC1a channel (human, UniProt P78348); assay: cell-based or functional assay
[5] = target: rat heteromeric ASIC1a+ASIC1b channel (rat, UniProt P55926); assay: cell-based or functional assay
[6] = target: rat heteromeric ASIC1a+ASIC2a channel (rat, UniProt P55926); assay: cell-based or functional assay
[7] = target: human heteromeric ASIC1a+ASIC2a channel (human, UniProt P78348); assay: cell-based or functional assay

Row | Molecule | inhibition of the acid-evoked ASIC current, patch clamp whole cell, COS cells [1] [nM] | inhibition of the acid-evoked ASIC current, patch clamp whole cell, COS cells [2] [nM] | inhibition of the acid-evoked ASIC current, patch clamp whole cell, COS cells [3] [nM] | inhibition of the acid-evoked ASIC current, patch clamp whole cell, COS cells [4] [nM] | inhibition of the acid-evoked ASIC current, patch clamp whole cell, COS cells [5] [nM] | inhibition of the acid-evoked ASIC current, patch clamp whole cell, COS cells [6] [nM] | inhibition of the acid-evoked ASIC current, patch clamp whole cell, COS cells [7] [nM]
1 | ASICalgin-1 (π-Dp1) (peptide) | 650 | – | – | – | – | – | –
2 | B1 | – | 650 | 49 | 127 | 223 | 308 | 308
3 | B2 | – | – | 49 | 127 | 223 | 308 | 308

— patent US20130196923A1, “NOVEL PEPTIDES WHICH HAVE ANALGESIC EFFECTS AND WHICH INHIBIT ASIC CHANNELS” (CENTRE NATIONAL DE LA RESERCHE SCIENTIFIQUE-CNRS, published 2013)
